For test [1], the system named is Na+ dependent phosphate co-transport in human renal proximal tubule cell-line (Hu-CL8). The test can be described thus: 33PO4 uptake scintillation proximity assay (SPA) in Hu-CL8. The class given is cell-based. The method, then:
Measurement of ^33PO4 uptake and ^14C-α-methyl D-glucose uptake. A novel technique, scintillation proximity assay (SPA), was used to measure ^33PO4 uptake in-vitro. Human renal proximal-tubule primary cells (RPTEC) were purchased from Clonetics-Biowhittaker (Walkersville, Md.) (cat. no. CC2553) and were cultured and subcultured using the manufacturers recommended protocols, methods, buffers and media (cat. nos. CC3190, CC5034). Also a human renal cell-line (Hu-CL8) was cultured as previously described (Rowe et al. Candidate 56 and 58 kDa protein(s) responsible for mediating the renal defects in oncogenic hypophosphatemic osteomalacia. Bone 18(2):159-169, 1996). For ^33PO4-uptake measurement cells were grown in REBM media supplemented with 5% fetal calf serum (REBM-FCS) to 80% confluence (Clonetics-Biowhitaker, Walkersville, Md.: cat. nos. CC2553, CC3190 and CC5034) and seeded into 96 well (3000 cells/well) cytostar-T scintillating-microplates (Amersham-Pharmacia Biotech, Piscataway, N.J.: cat. no. RPNQ 0162). Cells were then cultured in 200 μL of REBM-FCS media for 24 h. Media was then replaced with serum free media (REBM) and the cells incubated for a further 3-4 h with Hu-MEPE, PTH (1-34) or media control respectively in REBM media. The concentrations of PTH (1-34) and Hu-MEPE were […] and each experimental dose was repeated eight times for statistical analysis. Following incubation media was removed and replaced with either phosphate uptake buffer (PUB) consisting of 150 mM NaCl/1 mM Cacl2/1.8 mM MgSO4/10 mM HEPE pH 7.0/0.1 mM phosphate buffer pH 7.0 and 3 uCi mL^−1 33P as orthophosphoric acid (18 MBq/mL or 5775.7 Gbq/mg stock solution Perkin Elmer, Wellesley, Mass.: cat. no. NEZ080). In order to determine the Na-dependent phosphate co-transporter activity a separate set of control cells were incubated with the same buffer but with choline chloride (150 mM) substituted for NaCl (CHUB buffer). […] Due to the unique design of the 96 well cytostar-plate radioactive decay in solution is not detected by the counter. In contrast, radioisotope attached to or taken into the cells initiates release of plastic-scintillant photons that are detected by the top-counter photo-multiplier tube. Thus, no washes are required and direct CPM can be counted in living cells. […] Conversion of a tetrazolium salt to a colored formazan product by living cells was then measured at 490 nm using a 96 well multi-well spectrophotometer with KC-4 software (absorbance at 490 nm is directly proportional to the number of living cells). Na-dependent ^33P uptake was then calculated by subtracting background counts and the choline chloride non Na-dependent ^33P uptake and results expressed as ^33PO4 femtomoles/10^4-cells/6 min. […]

Test [2] deals with Na+ dependent phosphate co-transport in primary human renal proximal tubule epithelial cells (RPTEC). The test can be described thus: 33PO4 uptake scintillation proximity assay (SPA) in RPTEC. The format is cell-based. How it is done:
Measurement of ^33PO4 uptake and ^14C-α-methyl D-glucose uptake. A novel technique, scintillation proximity assay (SPA), was used to measure ^33PO4 uptake in-vitro. Human renal proximal-tubule primary cells (RPTEC) were purchased from Clonetics-Biowhittaker (Walkersville, Md.) (cat. no. CC2553) and were cultured and subcultured using the manufacturers recommended protocols, methods, buffers and media (cat. nos. CC3190, CC5034). Also a human renal cell-line (Hu-CL8) was cultured as previously described (Rowe et al. Candidate 56 and 58 kDa protein(s) responsible for mediating the renal defects in oncogenic hypophosphatemic osteomalacia. Bone 18(2):159-169, 1996). For ^33PO4-uptake measurement cells were grown in REBM media supplemented with 5% fetal calf serum (REBM-FCS) to 80% confluence (Clonetics-Biowhitaker, Walkersville, Md.: cat. nos. CC2553, CC3190 and CC5034) and seeded into 96 well (3000 cells/well) cytostar-T scintillating-microplates (Amersham-Pharmacia Biotech, Piscataway, N.J.: cat. no. RPNQ 0162). Cells were then cultured in 200 μL of REBM-FCS media for 24 h. Media was then replaced with serum free media (REBM) and the cells incubated for a further 3-4 h with Hu-MEPE, PTH (1-34) or media control respectively in REBM media. The concentrations of PTH (1-34) and Hu-MEPE were […] and each experimental dose was repeated eight times for statistical analysis. Following incubation media was removed and replaced with either phosphate uptake buffer (PUB) consisting of 150 mM NaCl/1 mM Cacl2/1.8 mM MgSO4/10 mM HEPE pH 7.0/0.1 mM phosphate buffer pH 7.0 and 3 uCi mL^−1 33P as orthophosphoric acid (18 MBq/mL or 5775.7 Gbq/mg stock solution Perkin Elmer, Wellesley, Mass.: cat. no. NEZ080). In order to determine the Na-dependent phosphate co-transporter activity a separate set of control cells were incubated with the same buffer but with choline chloride (150 mM) substituted for NaCl (CHUB buffer). After 10 min at 37° C. the reaction was terminated by removing the PUB and CHUB buffers and replacing with STOP buffer (CHUB buffer without radioisotope). The cytostar scintillation plates were then directly assayed for counts (CPM) using a Hewlett-Packard (Palo Alto, Calif.) Multiplate Top-counter calibrated for ^33P SPA assay. Due to the unique design of the 96 well cytostar-plate radioactive decay in solution is not detected by the counter. In contrast, radioisotope attached to or taken into the cells initiates release of plastic-scintillant photons that are detected by the top-counter photo-multiplier tube. Thus, no washes are required and direct CPM can be counted in living cells. Following CPM determination the buffers were removed from the living cells and fresh media supplemented with cell-titre-96 (Promega-Biotech, Madison, Wis.: cat. no. G5421) cell-number detection media. Cells were then further incubated at 37° C. for 4 h. Conversion of a tetrazolium salt to a colored formazan product by living cells was then measured at 490 nm using a 96 well multi-well spectrophotometer with KC-4 software (absorbance at 490 nm is directly proportional to the number of living cells). Na-dependent ^33P uptake was then calculated by subtracting background counts and the choline chloride non Na-dependent ^33P uptake and results expressed as ^33PO4 femtomoles/10^4-cells/6 min. […]
On the technique in general: In a scintillation proximity assay essentially only radioactivity close to the scintillant gives light.

The test system of test [3] is CHO cell tumors. The experiment in a line: Example IV: CHO cell tumors expressing MEPE in athymic nude mice. The class given is in vivo. How it is done: Six groups of athymic nude mice were injected with the one of the following: normal saline, CHO cells, CHO cells containing an empty vector, CHO cells expressing MEPE (CHO-MEPE), CHO cells expressing PHEX (CHO-PHEX), and CHO cells expressing PHEX and MEPE (CHO-PHEX-MEPE). Tumor size was assessed based on combined tumor weight at nine different time points.

Several values for one entry are separate records, joined by “and”; a condition that tells them apart may be missing. Equal entries are not always repeated. Entries after “also recorded” stand apart in the source; their conditions may differ.

B1: Hu-MEPE: purified insect expressed full-length recombinant human MEPE (Matrix Extracellular Phosphoglycoprotein) (protein)
chain: PTFQPQTEKTKQSCVEEQRQEEKNKDNIGFHHLGKRINQELSSKENIVQERKKDLSLSEASENKGSSKSQNYFTNRQRLNKEYSISNKENTHNGLRMSIYPKSTGNKGFEDGDDAISKLHDQEEYGAALIRNNMQHIMGPVTAIKLLGEENKENTPRNVLNIIPASMNYAKAHSKDKKKPQRDSQAQKSPVKSKSTHRIQHNIDYLKHLSKVKKIPSDFEGSGYTDLQERGDNDISPFSGDGQPFKDIPGKGEATGPDLEGKDIQTGFAGPSEAESTHLDTKKPGYNEIPEREENGGNTIGTRDETAKEADAVDVSLVEGSNDIMGSTNFKELPGREGNRVDAGSQNAHQGKVEFHYPPAPSKEKRKEGSSDAAESTNYNEIPKNGKGSTRKGVDHSNRNQATLNEKQRFPSKGKSQGLPIPSRGLDNEIKNEMDSFNGPSHENIITHGRKYHYVPHRQNNSTRNKGMPQGKGSWGRQPHSNRRFSSRRRDDSSESSDSGSSSESDGD
With B1, the results for the “Vmax of percentage inhibition of 33PO4-uptake” value in test [1] (Hu-CL8) and in test [2] were 9.1% and 53.4%, respectively. Also, the “inhibition of Na+ dependent phosphate co-transport” value in test [1] (Hu-CL8) and in test [2] was “dose-dependent in-vitro inhibition” in each case. Besides, the “Km of inhibition of 33PO4-uptake” value is 23.8 ng/mL in test [1] (Hu-CL8, lineweaver-burke plot); 27.4 ng/mL and 27.39 ng/mL in test [2] (lineweaver-burke plot). For the same molecule, the “tumor size (combined tumor weight)” value in test [3] (CHO cells expressing MEPE vs CHO cells with empty vector, nude mice) was “significantly reduced; also recorded: dramatically reduced size”. In addition, the “1,25-vitamin D3 serum levels” value in test [3] (CHO-MEPE and CHO-PHEX-MEPE groups vs groups not expressing MEPE) is given as “decrease in serum levels”. The serum phosphate result in test [3] (after thirteen days, CHO-MEPE and CHO-PHEX-MEPE groups) is recorded as “hypophosphatemia; also recorded: decrease in serum phosphate”.

Values taken from patent publication US20070099822A1, “Regulation of tissue mineralization and phosphate metabolism by asarm peptides” (priority 2003, published 2007).
